Data reported in patent US8329409B2, “Methods, kits, and antibodies for detecting parathyroid hormone” (Scantibodies Laboratory, Inc., priority 1999, dated 2012).
Where “and” joins values, the source holds several entries; their conditions need not be identical. Equal values may be shown once. Entries after “also recorded” stand apart in the source; their conditions may differ.

What was measured:
Nichols Intact PTH assay = assay: Nichols Intact (I-Nichols) PTH assay, recognition of hPTH 1-84 vs hPTH 7-84; assay type: binding; details: compared with hPTH 1-84
Description: The present whole IRMA assay was compared to a conventional intact PTH or I-PTH immunoassay, the Allegro Nichols Intact-PTH assay, (which is commercially available and made by Nichols Institute Diagnostics of San Juan Capistrano, Calif., U.S.A.), in both PTH normal persons and those suffering from chronic uremia. This I-PTH immunoassay, detects both PTH7-84 and wPTH (see FIG. 10).
This new Whole PTH two-site assay (Scantibodies Laboratories, Santee, Calif., USA) first employees and antibody that recognizes the 39-84 region of the PTH molecule. This antibody, produced in a goat and affinity purified, is present in relative excess and is immobilized onto polystyrene-coated tubes. The second antibody, also developed in a goat, was also affinity purified and recognizes only the first six amino acids (1 to 6; Ser-Val-Ser-Glu-Ile-Gln) of the human PTH molecule (FIG. 1). This anti-hPTH assay uses synthetic human PTH 1-84 as the standard, with a limit of detection of approximately 1 to 2 pg/mL. Normal values range from 5 to 35 pg/mL. […] The Whole PTH assay was compared with the Intact PTH assay purchases from the Nichols Institute (I-Nichols, San Jan Capistrano, Calif., USA). Synthetic human PTH 1-84 and 7-84 were purchased from Bachem (Torrance, Calif. USA). To assess circulating levels of hPTH 1-84 and non-(1-84) PTH, heparinized blood samples were obtained before dialysis from 28 patients who had been maintained on chronic hemodialysis for 1.2 to 7.5 years and from 14 renal transplant patients (1 to 6 years).

ROS/17.2 cells = assay: cAMP production in osteoblastic cell line ROS/17.2; assay type: cell-based, rat; details: for effect on cAMP production: 10^-11 to 10^-8 mol/L, no-effect statement at 10^-8 mol/L
Procedure: Osteoblastic cell line. To compare the biological effects of the two peptides (hPTH 1-84 and 7-84), intracellular cAMP production was measured in the rate osteosarcoma cell line ROS/17.2, which has an osteoblastic phenotype and is known to increase cAMP production in response to PTH. Cells were cultured in Ham's F12 media containing 10% fetal bovine serum. Cells were plated out in 12-well plates at a density of 30,000 cells per well and grown to confluence. Cells were washed three times with KHMS buffer at 37° C. (KCI 4.0 mmol/L, CaCl2 1.25 mmol/L, MgSO4 1.25 mmol/L, KH2PO4 1.2 mmol/L, HEPES 10 mmol/L, NaCl 100 mmol/L, NaHCO3 37 mmol/L, and glucose 10 mmol/L, pH 7.5). cAMP production was measured using 500 μL of KHMS buffer (37°) containing isobutyl-1 methylxantine (IBMX) 1.0 mmol/L and various concentrations (10^−11 to 10^−8 mol/L) of hPTH 1-84 or hPTH 7-84. After a five-minute incubation, 100 μL of 1.8 mol/L pechloric acid were added. After an additional five-minute incubation at room temperature, 100 μL of 3 mol/KHCO3 were added to neutralize the acid. Samples were centrifuged at 3000 rpm for 15 minutes, and the supernatants were assayed for cAMP [26].

Sprague-Dawley rats = assay: Phosphaturic response (clearance studies) in rats; assay type: in vivo
Procedure: Phosphaturic response. Normal female Sprague-Dawley rats weighing 225 to 250 g were prepared for clearance studies under light anesthesia. Polyethylene catheters (PE50) were placed in the femoeral artery for the collection of blood and measurement of blood pressure (Blood Pressure Analyzer; Micro-Medic, Inc., Louisville, Ky., USA), in the femoral vein for infusion and in the bladder for the collection of urine. Rats were placed in Plexiglas® holders and allowed to recover from the effect of the anesthetic for one hour. A priming dose (0.6 mL) of chemical inulin in saline was administered over a period of three minutes to achieve a plasma inulin level between […]. A solution of saline containing inulin to maintain this level and calcium gluconate to deliver 0.5 mg. Calcium was infused at the rate of 0.03 mL/min. After equilibration, a total of four 30-minute urine collections was obtained.
To assess the effect of hPTH 1-84 on phosphate excretion, urine was collected during two control periods, after which rats received a priming bolus of 1.8 μg of hPTH 1-84 followed by a sustained infusion that delivered a total of 8.2 μg of I-PTH. After an equilibration period of 20 minutes, two 30-minute urine collections were obtained. […]
Blood samples and blood pressure measurements were recorded at the beginning and end of the baseline period, at the beginning of the PTH infusion period, and at the end of the study. The concentration of inulin in plasma and urine was determined by the method of Fuhr, Kaczmarczyk, and Kruttgen, Klin Wochenschr, 33:729-730 (1955). The estimation of the glomerular filtration rate (GFR) by inulin clearance and the calculation of the fractional urinary excretion rate of phosphorus (FEP04) were performed in the standard fashion. Blood samples were centrifuged, and plasma phosphorus and calcium concentrations were measured.

[1] = tested on: Whole PTH assay (goat antibodies to PTH 39-84 and to the first six amino acids of human PTH); assay: Whole PTH IRMA assay, recognition of hPTH 1-84 vs hPTH 7-84; assay type: binding; details: hPTH 7-84 at a concentration as high as 10,000 pg/mL
Procedure: Another method would be to couple the initial wPTH sequence antibody to colloidal solid supports, such as latex particles. More specifically, one can create a signal antibody by iodinating 50 micrograms of affinity purified goat anti-(1-6) PTH antibody (Scantibodies Laboratory, Inc., Santee Calif., U.S.A.) by oxidation with chloramine T, incubation for 25 seconds at room temperature with 1 millicurie of 125-1 radioisotope and reduction with sodium metabisulfate. […] The fractions collected from the desalting column are measured in a gamma counter and those fractions representing the 125-1-goat anti-(1-6) PTH antibody are pooled and diluted to approximately 300,000 D PM (disintegrations per minute) per 100 microliters. […]
To conduct a whole PTH assay of a sample, 200 microliter samples of human serum are added to the solid phase antibody coated tubes. […] Radioactivity on the solid phase, which amount corresponds to the quantity of wPTH present, is measured using a gamma counter. The radioactivity data for the samples is processed by conventional analysis with use of the results from standards and controls and computer software in order that the concentration of whole PTH in the samples may be ascertained. […]

PTX rats = assay: Calcemic response in parathyroidectomized (PTX) rats; assay type: in vivo, Sprague-Dawley rats
Procedure: Calcemic response. Normal female Sprague-Dawley rats weighing 225 to 250 g (Harlan, Indianapolis, Ind., USA) were parathyroidectomized (PTX) and fed a 0.02% calcium diet. Rats with a plasma calcium below 7.0 mg/dL after overnight fasting were included in the study. A 20 μg dose of hPTH 1-84 or 7-84 was given intraperitoneally to PTX rats in four doses of 5 μg each at 30-minute intervals (0, 30, 60, and 90 minutes). For control studies, the rats received vehicle (saline solution) alone. Blood was drawn via the tail at 0, 60, 90, and 120 minutes. For competition experiments, rats received an injection of hPTH 7-84 10 minutes prior to each injection of hPTH 1-84. The molar ratio of hPTH 7-84/hPTH 1-84 was 1:1.
Total plasma calcium levels were determined using an atomic absorption spectrophotometer (model 1100B; Perkin Elmer, Norwalk, Conn., USA). Plasma phosphorus levels were determined using an autoanalyzer (COBAS MIRA Plus; Roche, Newark, N.J., USA).

Molecule | recognition by the Nichols Intact PTH assay (Nichols Intact PTH assay) | recognition by the Nichols Intact PTH assay (Nichols Intact PTH assay; listed as 7-84) | recognition by the Nichols Intact PTH assay (Nichols Intact PTH assay; listed as PTH7-84) | effect on cAMP production (ROS/17.2 cells) | decrease of the increase in FEP04 (phosphaturia) induced by hPTH 1-84 (Sprague-Dawley rats; co-administration of hPTH 7-84 with hPTH 1-84 (molar ratio 4:1)) [%] | glomerular filtration rate (GFR), treatment period (Sprague-Dawley rats; hPTH 7-84 given simultaneously with hPTH 1-84 (molar ratio 4:1), increased from 2.1±0.1, N=8, P<0.05) [mL/min] | detection by the Whole PTH assay [1] | decrease in plasma calcium (PTX rats; PTX rats fed a 0.02% calcium diet, 20 μg intraperitoneally in four doses of 5 μg, N=5, P<0.05) [mg/dL] | decrease of the calcemic response induced by hPTH 1-84 alone (PTX rats; hPTH 7-84 given with hPTH 1-84 in a 1:1 molar ratio, PTX rats, N=6, P<0.001) [%] | intracellular cAMP after treatment (ROS/17.2 cells; 10^-8 mol/L peptide, five-minute incubation, increased from 18.1±1.25 nmol/well, N=6) | glomerular filtration rate (GFR), treatment period (Sprague-Dawley rats; rats infused with hPTH 1-84 alone, control period 1.8±0.3, N=10) [mL/min] | fractional excretion of phosphate (FEP04), treatment period (Sprague-Dawley rats; rats infused with hPTH 1-84 alone, increased from 11.9±2.4, N=10, P<0.001) [%] | increase in plasma calcium (PTX rats; PTX rats fed a 0.02% calcium diet, 20 μg intraperitoneally in four doses of 5 μg, N=9, P<0.001) [mg/dL]
hPTH 7-84: Synthetic human PTH 7-84 purchased from Bachem; large non-(1-84) PTH fragment, PTH antagonist (PIN) (peptide) peptide: LMHNLGKHLNSMERVEWLRKKLQDVHNFVALGAPLAPRDAGSQRPRKKEDNVLVESHEKSLGEADKADVNVLTKAKSQ | does not differentiate | did not discriminate | detects | no effect | 50.2 | 2.6 ± 0.2 | undetectable | 0.30 ± 0.08 | 94 | – | – | – | –
hPTH 1-84: Synthetic human PTH 1-84 purchased from Bachem; complete 84 amino acid human parathyroid hormone (SEQ ID NO: 1) (peptide) SVSEIQLMHNLGKHLNSMERVEWLRKKLQDVHNFVALGAPLAPRDAGSQRPRKKEDNVLVESHEKSLGEADKADVNVLTKAKSQ | – | – | – | increased cAMP production in a does-dependent manner; also recorded: increased cAMP production in a dose-dependent manner | – | – | detected with a high degree of sensitivity | – | – | 738±4.13 nmol/well and 738±4.1 nmol/well | 1.8 ± 0.1 | 27.7±2.4 | 0.65 ± 0.10
